# The nanobody polyreactivity screen of Harvey et al. (2022)
# Experiment: yeast display, Sf9 membrane polyspecificity reagent, FACS + sequencing; frameworks hold sequencing errors
# Summary of the method: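 After 36–48 hours of galactose induction, yeast (Saccharomyces cerevisiae BJ5465) displaying a synthetic nanobody library were stained at 4 °C for 1 hour with 10% biotinylated, detergent-solubilized Sf9 membrane reagent. Streptavidin microbeads enriched the stained cells before FACS sorting into low and high (top ~1%) gates on anti-HA and streptavidin fluorescence. Each clone's polyreactivity label reflects its gate of origin.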
row,Sequence,polyreactivity (PSR sort gate)
1,QVQLVESGGGLVQAGGSLRLSCAASGRTFVRNAMGWYRQAPGKERELVAGIRRGGTTNYADSVKGRFTISRDNAKNTVYLQMNSLKPEDTAVYYCNALYRYGWLYAPKYNSWGQGTQVTVSS,high polyreactivity
2,QVQLQESGGGLVHAGGSLRLSCAASGTISFINMMGWYRQAPGRERELVASINFGANTNYADSVKGRFTISRDNAKNTVYLQMNSLKPEDTAVYYCAVYDFDAYTLYYWGQGTLVTVSS,high polyreactivity
3,QVQLVETGGGLVQAGGSLRLICAASGSTFQYYAMGWSRQAPGKERELVAAITHSGTRTYYADSVKGRFTISRDNAKNTVYLQMYRLKPEDTSVYYCAALYTWYRYYRLDYWGQGTQVTVSS,high polyreactivity
4,QVQLVESGGGLVQSGGSLRLSCAASGRIFGKYAMGWYRQAPGKERELVARISFSGGTTYYADSVKGRFTISRDNAKNTVYLQMYSLKPEDTAVYYCSARSVWSQRWAYDSWGQGTQVTVSS,high polyreactivity
5,QVQLEDSGGGLVQAGGSLRLSCAASGGIFLTYTMGWYRQAPGKEREFVAAIRSSSGRTYYADSVKGRFTISRDNAKNTVYLQMISLKPEDTSVYYCNAKYYGYRVGKYYPFGYWGQGTQVTVSS,high polyreactivity
6,QVQLVESGGGLVQAGGRLRLSCAASGSTFVRNAMGWYRQAPGKERELVAAITGTGDSTYYADSVKGRFTISRDNAKNTVYLQMNSLKPEDTAGYYCDANSDAYRYWYDYWGQGTQVTVSS,low polyreactivity
7,QVQLVESAGGLVQAGGSLRLSCAASGIIFGQNAMGWYRQAPGKDRELVAAITISGGSTYYADSVKGRFTISRDNAKNTVYLQMNSLKPEVTAVYYCAARRVTWKDIAGGYRYGYWGQGTQVTVSS,low polyreactivity
8,QVQLVESGGGLVQAGGSLRLSCAASGSTLYPNAMGWYRHAPGKERELVAAISSGSSTYADSVKGRFTISRDNAKNTVYLQMNSLKPEDTAVYYCNADSRIHYDYWGQGTQLTVSS,low polyreactivity
9,QVQLVESGGALVQAGGSLRLSCAASGSIFYTNAMGWYRQAPGKERELVAAIRWSGGRTYYADSVKGRFTISRDNAKNTVYLQMNSLKPEDTAVYYCNKVPRTPIPYKYGDWGQGTHVTVSS,high polyreactivity
10,QVQLVESGGGLVQAGVSLRLSCAASGSIFGYYAMGWYRQAPGKERELVAAINYSGVSTYYADSVKGRFTISRDNAKNTVYLQMNSLKPDDTAVYYCAAKGRKSVYSRNSWGQGTQVTVSS,high polyreactivity
11,QVQLVESGGGLVQAGGSLRLSCAASGRTSRVYAMGWYRQAPGTERELVAAITWRGGNTYYADSVKGRFTISRDHAKNTVYLQMNSMKPEDTAVYYCAADPWSYGSWHGDSWGQGTQVTVSS,high polyreactivity
12,QVQLVESGGGLVQAGGSLRLSCAASGRILRSYAMGWYRPAPGKERELVAAIRWRGGSTYYADSVKGRFTISRDNAKNTVYLQMNSLKPEDTAVYYCAARSYYRQSAGDYWGQGTQVTVSS,high polyreactivity
13,QVQLVESGGGLVQAGGSLRLSCAASGRIFLYYAMGWYRQAPGKERELVAAIDSSGGNTNYADSVKGRFTISRDNAKNTVYFQMNSLKPEDTAVYYCAADFYVSADRWPNYDYWGQGTQVTVSS,low polyreactivity
14,QVQLVESGGGLVQAGGSLRLSCAASGIIFGIYDMGWYRQAPGKERELVAAIRRSGGSTYYADSVKGRFTISRDNAKNTVYLQMNSLKPEDTAVYYCAATRHSRVRGGDYWGQGTQVTVSS,low polyreactivity
15,QVQLVESGVGLVQAGGSLRVSCAASGRTFRYYAMGWYREAPGKERELVAAISSGTRTNYADSVTGRFTISRDNAKNTVYLQMNSLKPEDTAVYYCNAVTRRSAQGGHDYWGQGTQVTVSS,high polyreactivity
16,QVQLVESGGGLVQAGGSLRLSCAASGSIFGSNMGWYRQAPGKERELVAAISSRGGRTYYADSVKGRFTISRVNAKNTVYLQMNSQKPEDTAVYYCATRTFRGGRGYEYWGQGTQVTVSS,high polyreactivity
17,QVQLVESRGGLVQAGGSLGLSCAASGPTFFYNAMGWYRQAPGKERELVAAISSGGGSTYYADSVKGRFTISRDNAKNTVYLQMNSLKPEDTAVYYCAGASYRQPGYGYWGQGTLVTVSS,high polyreactivity
18,QVQLVESGGGLVQAGGSLRLSCSASGIIFSEYAMVWYRQAPGKERELVAAISKSSGSTRYADSVKGRFTISRDNAKNTVYLQMNSLKPEVTAVYYCAAVYRGVVVYGYWGQGTQVTVSS,high polyreactivity
19,QVQLVESGGGLVQAGGSLRLSCAASGSIFYPYVMGWYRQAPGKERELVAAITTSVGSTYYADSVKGRFTISRDNAKNTVYLQMNSLKPEDTAVYYCAAIYFGSRRPGRYNYWGQGTQVTVSS,high polyreactivity
20,QVQLVESGGCLVQAGGSHRLSCAASGLTFPKYAMGWYRQAPGKERELVARISYSGASTYYADSVKGRFTISRDNAKNTVYLHMNSLKPEDTAVYYCYARIYRVFYVHFAPYYYWGQGTQVTVSS,high polyreactivity
21,QVQLVESGGGLVQAGGSLRLSCAASGLTFPYNAMGWYRQAPGKERELVAAISNGGGTYYADSVKGRFTISRDNAKNPVYLQMNSLKPEDTAVYYCAVDEYSRDYWRYYYWGQGTQVTVSS,low polyreactivity
22,QVQLVESGGGLVQAGGSLRLSCAASGRIFGYYAMGWYRQAPGKERELVATITFGGGSTYYADSVKGRFTISRDNAKNTVYLQMNSLKPEDTAVYFCAADSGYLGIYGDEYSWGQGTQVTVSS,low polyreactivity

row,Sequence,polyreactivity (PSR sort gate)
1,QVQLVESGGGLVQAGGSLRLRCAPSGFIFNTMGWYRQAPGKERDLVATISWSDGSTYYADSVKGRFTISRDNAKNTVYLHMNSLKTEDTADYYCAATTDALVGRPRYDYWGQGTQVTVSS,low polyreactivity
2,QVQLVESGGCLVQAGGSLRLSCAASGHIFTFYAMGWYRQAPGKERELVATIRWSGGSTYYADSVKGRFTISRDNAKNTVYLQMNSLKPEDTAVYYCAATYYPSSYVQRLDYWGQGTQVTVSS,low polyreactivity
3,QVQLVESGGCLVQAGGSLRLSCAASGLNFSKNVKGWYIQAPGKERELVAAISQRGGSTYYADSVKGRFTISRDYAKNTVYLQMNSLKPEDTAVYYCAADTTVSHEDYWGQGTQVTVSS,low polyreactivity
4,QVQLVESGGGLVQAGGSLRLSCAASGRTFSYYTMGWYRQAPGKERELVAAITSSGGSTYYADSVKGRFTISRDNAKNTVYLQMNSLKPEDTAVYYCAVLNYWAMDYWGQGTQVTVSS,high polyreactivity
5,QVQLVESGGGLVQAGGSLRLSCAASGSTFTTYAMGWYRQAPGKERELVAAISNNGGRTFYADSVKGRFTISRDNAKNTVYLQMNSLKPEDTAVYYCAAEYGLYAPGYYYWGQGTQVTVSS,low polyreactivity
6,QVQLVESGGGLVQAGGSLRFSCAASGYTVGDYAMGSYRQAPGKERELVAVITRNGGRTYYADSVKGRFTISRDNAKNTVYLQMNSLKPEDTAVYYCNRDTSIRHYNYWGQGTQVTVSS,high polyreactivity
7,QVQLVESGGGLVQAGGSLRLSCAGSGITFYWYAMGWDRQAPGKERELVAGISQSGSRTYYADSVKGRFTISRDNAKNTVYLQMNSLKPEDTAVYYCAARVRWSPTRTFEYWGQGTQVTVSS,high polyreactivity
8,QVQLVESGGGLVQAGGSLRLSCAASGGIFPAYAMGWYRQAPGKERELVASISSSGGSTYYADSVKGRFTISRDNAKNTVYLQMNSLKPEDTAVYYCNVAQYLRARRPVDYWGQGTQVTVSS,high polyreactivity
9,QVQLVESGGGIVQAGGSLRLSCAASGRIFSSYAMGWYRQAPGKERELVAAITRGGSTYYADSVKGRFTISRDNANNTVHLQMNSLKPEDPAVYYCAARPPYRYWFWGNEDYWGQGTQVTVSS,high polyreactivity
10,QVQLVESGGGLVQAGGSLRLSCAASGRSFTGNAMGWYRQAPGKERELVAAISWRGARTYYADSVKGRFTISRDNAKNTVYFQMNSLKPVDTGVYYCAAAYRGYARHDYWGQGTQVTVSS,high polyreactivity
11,QVQLVESGGGLVQAGGSLRLRCAASGSIFVYNARGWYRPAPGKERELVPAISKSGGRTYYADSVKGRFTISRDNAKNTVYCQMHSLKPEDTAVYYCNALAGQRQGWEYDYWGQGTQVTVSS,high polyreactivity
12,QVQLVESGGGLVQAGGSLRLSCAASGSIFVKYAMGWYRQAPGKERELVAAISRSGTRTYYADSVKGRFTISRDNAKNTVYLQMNSLKPEDTAVYYCAAAATTVRAYEYWGQGTQVTLSS,high polyreactivity
13,QVHLVESGGGLVQAGGSLRLSCAASGSTFGRNAMGWYRQAPGKERELVAAISRGGGITYYADSVKGRFTISRDNAKNTVYLQMTSLKPEDTAVYYCNAYLSKYFRYDYWGQGTQVTVSS,high polyreactivity
14,QVQLVESCGGLVQAGGSLRLSFAASGSILVRYAMGWYRQAPGKERELVAAITSGGSTYADSVKGRFTISRDNAKNTVYLQMNSLKPEDTAVYYCAADAYGYGGDSWGQGTLVTVSS,low polyreactivity
15,QVQLVESGGGLVQAGGSLRLSCAASGFIFRSYAMGWYRQAPGKEREFVAAITTRGTGTYYADSVKGRFTISRDNAKNTVYLQMNSLKPEDTAVYDCAARRGWGDDYWGQGTQVTVSS,high polyreactivity
16,QVQLVESGGGLVQAGGSLRLSCAASGFTLYSYAMGWYRQAPGKETELVAAITRSGGITYYADSVKGRFTISRDNAKNTVYLQMNSLKPEDTAVYYCAALYLATGVDKAFDSWGQGTQVTVSS,high polyreactivity
17,QVQLVESGGGLVQAGGILRLSCAASGFIFAYYAMGWYRQAPGKEREFVAVITSSGGRTYYADSVKGRFTISRDNAKNTVYLQMNSLNPVDTAVYYCATSRGYANKYYYWGQGSQVTVSS,low polyreactivity
18,QVQRVESGGDLVQAGGSLRLSCAASGFIYTYYAMGWYRLAPGKERDFVATINWSDGSTRYADSVKGRFTISRDNAKNTVYLQMNSLKPEDTAVYYCAKDWFNRPSGEMDYCGQGTQVTVSS,low polyreactivity
19,QVQLVESGGGLVQAGGSLRLSCAASGSIFAGNAMGWYRQAPGKERELVAGITFGDDSTYYADSVKGRFTISRDNAKNTVYLQMNSLKPEDTAVYYCATDLHPYNYYFYHYWVDAAYDYWGQGTQVTVSS,low polyreactivity
20,QVQLVESGGGLVQAGGSLRLSCAASGRIFLYNAMGWYRQAPGKERELVAAISYNSGRTYYADSVKGRFTISRDNAKNTVYLQMNSLKPEDTAVYYCAAVSYPAVYGFDYWGQVTQVTVSS,high polyreactivity
21,QVQLVESGGGLVQAGGSLRLSCAASGRIFGGYVMGWYRQAPGKERELVAAISKRGDSTYYADSVKGRFTISRDNAKHTVYLQMNSLKPEDTAVYYCAAVRRGDRGTDMDYWGQGTQVTVSS,high polyreactivity
